Experimental data published in the supplement of paper PMC9112550, “Optimization of the antimicrobial peptide Bac7 by deep mutational scanning” (BMC Biology, 2022).

tested on: Escherichia coli TOP10; test: shrunken log2 fold change of peptide-encoding DNA abundance (4.5 h post-induction vs induction); higher = less antimicrobial activity (less host growth inhibition); details: time post-induction: 4.5 h; library: site-saturation at positions 5, 18, 19, 20
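Further: peptides expressed intracellularly from a pBAD plasmid library in pooled LB shake-flask culture, induced with 0.3% L-arabinose, DNA abundance read by NGS, three biological replicates, DESeq2 with apeglm shrinkage.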

Sequence	shrunken log2 fold change
RRIRARPPRLPRPRPRPMLKPRP	0.216
RRIRQRPPRLPRPRPRPGLFPRP	-0.176
RRIRLRPPRLPRPRPRPKKLPRP	0.111
RRIRSRPPRLPRPRPRPMKLPRP	-0.0255
RRIRQRPPRLPRPRPRPADKPRP	-0.137
RRIRFRPPRLPRPRPRPSYDPRP	-0.0248
RRIRPRPPRLPRPRPRPHHCPRP	-0.257
RRIRSRPPRLPRPRPRPRHIPRP	-0.264
RRIRVRPPRLPRPRPRPNPEPRP	-0.286
RRIRGRPPRLPRPRPRPWGPPRP	0.427
RRIRYRPPRLPRPRPRPWIPPRP	-0.0119
RRIRERPPRLPRPRPRPWKPPRP	-0.00455
RRIRTRPPRLPRPRPRPMEPPRP	0.045
RRIRDRPPRLPRPRPRPNTSPRP	-0.284
RRIRNRPPRLPRPRPRPVHFPRP	0.0937
RRIRSRPPRLPRPRPRPRVFPRP	0.151
RRIRQRPPRLPRPRPRPHGIPRP	0.179
RRIRIRPPRLPRPRPRPMVEPRP	3.19
RRIRARPPRLPRPRPRPDKGPRP	0.168
RRIRTRPPRLPRPRPRPGNQPRP	-0.0161
RRIRNRPPRLPRPRPRPDRGPRP	-0.0223
RRIRVRPPRLPRPRPRPDHEPRP	-0.0524
RRIRMRPPRLPRPRPRPGIRPRP	0.253
RRIRGRPPRLPRPRPRPIDCPRP	-0.00142
RRIRARPPRLPRPRPRPVQEPRP	0.509

Sequence	shrunken log2 fold change
RRIRGRPPRLPRPRPRPKLAPRP	1.67
RRIRHRPPRLPRPRPRPELDPRP	0.6
RRIRIRPPRLPRPRPRPDFAPRP	0.222
RRIRNRPPRLPRPRPRPSDEPRP	-0.189
RRIRGRPPRLPRPRPRPLSMPRP	1.34
RRIRERPPRLPRPRPRPRNEPRP	-0.473
RRIRHRPPRLPRPRPRPCPIPRP	-0.0539
RRIRYRPPRLPRPRPRPTQNPRP	0.298
RRIRHRPPRLPRPRPRPNAEPRP	-0.0088
RRIRCRPPRLPRPRPRPPYGPRP	-0.266
RRIRARPPRLPRPRPRPLCAPRP	0.704
RRIRKRPPRLPRPRPRPILEPRP	0.261
RRIRIRPPRLPRPRPRPKDVPRP	-0.141
RRIRMRPPRLPRPRPRPKSGPRP	-0.101
RRIRSRPPRLPRPRPRPKSHPRP	-0.158
RRIRWRPPRLPRPRPRPCVMPRP	0.0583
RRIRTRPPRLPRPRPRPQQRPRP	-0.0699
RRIRHRPPRLPRPRPRPLVRPRP	-0.103
RRIRDRPPRLPRPRPRPNTDPRP	-0.179
RRIRNRPPRLPRPRPRPAPPPRP	0.584
RRIRPRPPRLPRPRPRPLPWPRP	0.592
RRIRARPPRLPRPRPRPKDDPRP	0.811
RRIRARPPRLPRPRPRPEHKPRP	0.0692
RRIRVRPPRLPRPRPRPYFNPRP	-0.729
RRIRWRPPRLPRPRPRPYTSPRP	-0.0806

Sequence	shrunken log2 fold change
RRIRNRPPRLPRPRPRPSQAPRP	0.0297
RRIRYRPPRLPRPRPRPRMVPRP	-0.475
RRIRYRPPRLPRPRPRPGQAPRP	0.0475
RRIRDRPPRLPRPRPRPFSGPRP	-0.214
RRIRVRPPRLPRPRPRPVYMPRP	-0.184
RRIRSRPPRLPRPRPRPQNYPRP	-0.322
RRIRYRPPRLPRPRPRPNQRPRP	-0.181
RRIRWRPPRLPRPRPRPIMQPRP	0.0828
RRIRWRPPRLPRPRPRPALTPRP	0.393
RRIRVRPPRLPRPRPRPTNPPRP	-0.296
RRIRYRPPRLPRPRPRPDMCPRP	-0.0185
RRIRNRPPRLPRPRPRPGTVPRP	-0.31
RRIRHRPPRLPRPRPRPTLSPRP	-0.17
RRIRVRPPRLPRPRPRPDNSPRP	-0.202
RRIRIRPPRLPRPRPRPWAPPRP	-0.19
RRIRHRPPRLPRPRPRPAANPRP	-0.0763
RRIRPRPPRLPRPRPRPTWYPRP	-0.133
RRIRGRPPRLPRPRPRPGHPPRP	0.444
RRIRFRPPRLPRPRPRPLIGPRP	-0.106
RRIRDRPPRLPRPRPRPSYPPRP	-0.2
RRIRHRPPRLPRPRPRPVTRPRP	-0.00217
RRIRIRPPRLPRPRPRPCHFPRP	-0.131
RRIRRRPPRLPRPRPRPQTSPRP	0.24
RRIRQRPPRLPRPRPRPWCAPRP	0.0231
RRIRCRPPRLPRPRPRPPWWPRP	2.01
